The target of the assay is protective antigen (PA) prepore (Bacillus anthracis V770-NP1-R (ATCC …, UniProt P13423)). Put plainly: cryo-EM structure.
Sequence of protective antigen (PA) prepore (Bacillus anthracis V770-NP1-R (P13423 whole entry, looked up): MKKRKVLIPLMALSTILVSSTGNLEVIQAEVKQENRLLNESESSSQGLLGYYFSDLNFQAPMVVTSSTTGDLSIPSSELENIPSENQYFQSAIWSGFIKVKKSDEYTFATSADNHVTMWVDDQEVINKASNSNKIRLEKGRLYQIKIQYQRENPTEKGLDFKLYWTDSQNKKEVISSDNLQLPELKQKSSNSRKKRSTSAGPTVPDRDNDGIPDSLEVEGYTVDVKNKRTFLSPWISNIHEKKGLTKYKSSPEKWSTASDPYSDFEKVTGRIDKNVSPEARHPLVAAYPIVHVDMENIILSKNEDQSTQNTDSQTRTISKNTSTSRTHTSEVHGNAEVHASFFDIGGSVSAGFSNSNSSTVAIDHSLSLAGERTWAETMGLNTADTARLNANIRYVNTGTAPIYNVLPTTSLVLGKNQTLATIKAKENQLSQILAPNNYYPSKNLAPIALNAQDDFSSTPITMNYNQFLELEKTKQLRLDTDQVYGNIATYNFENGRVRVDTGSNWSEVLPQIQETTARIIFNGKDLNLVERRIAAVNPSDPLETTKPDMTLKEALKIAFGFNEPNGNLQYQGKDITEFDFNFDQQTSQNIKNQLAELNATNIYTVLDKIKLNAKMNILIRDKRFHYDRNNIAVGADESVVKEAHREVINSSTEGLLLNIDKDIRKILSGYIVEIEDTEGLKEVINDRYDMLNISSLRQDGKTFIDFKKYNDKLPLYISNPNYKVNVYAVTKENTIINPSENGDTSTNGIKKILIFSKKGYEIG

B1: cAb29 Fab (Fab, V domains shown)
VH: QVQLQQSGAELVKPGASVKMSCKASGYIFTNYNMHWVQQTPGQGLEWIGAIYPRTGDTSYNQKFKGKATLTADKSSSTAYMQLSSLTSEDSAVYYCARDGFAYWGQG
VL: DIQMTQTTSSLSASLGDRVTISCRASQDISNYLNWYQQKPDGTVKLLIYYTSRLHSEVPSRFSGSGSGTDYSLTISNLEEEDIATYFCQQGKTLPWTFGGG
On to B1, for which the binding result was “binds”.
